# Assay results published in a protein production outcome set (Wang et al. 2014).
# Assay: label from the status in PepcDB records
# 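Also: failed if final PepcDB status was selected cloned or expressed and not failed if soluble or beyond.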
row,Sequence,protein production
1,DEVENLYTQVADNEYLVQGRMLIDEFNEVFETDLHMSDVDTMAGYLITALGTIPDEGEKPSFEVGNIKLTAEEMEGTRLLVLRVHFYDEE,not failed
2,DGENYFIVDAHVALWDARRENQRNIHGKQFIDCFYDYHRNLSPASELWPYEDFLYQGGERLMKDLFTDGYVDHAIFQPAHLGAFYNTGFGQTEEAFALTRKHPGMLTYNHCFDPRFEEAGLKQLREDAARFGLKGVKLYTAEWKGDSRGYKLSDPWTYRYLDACRELGIKNIHVHKGPTIRPLDRDAFDVADVDAAASDFTDLNFVVEHCGLPRLEDFCWIATQEPNVHAGLAVAIPFMHTRPRYFAQIIGELLYWLDEDRIQFSSDYALWTPRWIVEQFVDFRIPDDMTGEYPQLTVAQKKKILGLNAAAMYDI,failed
3,DIAARRHTGVIPTHHQFITNERFGDLLNIDDTAKRKSGSEMRPARAKFDFKAQTLKELPLQKGDIVYIYKQIDQNWYEGEHHGRVGIFPRTYIELLPPAEKAQPKKLTPVQVLEYGEAIAKFNFNGDTQVEMSFRKGERITLLRQVDENWYEGRIPGTSRQGIFPITYVDVIKRPLVKNPVDYMDLPF,failed
4,DIMGFVFNTRRTLFKDKRVRQALSILFDFEWVNHHLFNNIYTRTEGYWDGSILSSIGKPASEEEKALLAPYPDAVLPEVMDGSWRISKTDGSGMDRLNAQKAWKLLQEAGFTKKNNRLIAPNGLPFQFEIMTQSLEEEKVALAFQSNLSRLGIHAEIRTVDDSQYQNRLGMFNYDMIIGKLKNSLSPGNEQINRWSSASRNLKGSFNFSGASDPAIDAMITAILDAHSQVDFIAAVRALDRILISGSYYIPLYHLS,not failed
5,DITERKQAESALQESEARFQAFMNNSPSASWITDDHGRMLYLSQTYVRTFQLPFDKVEDVTGKTVFELYTPEVAQPFLDNIHRVAQTQQILETIEKAPRLDGTLGDFLVYKFPLPATT,failed
6,DKITFKGDGDQSDPDGEPGDVVIVIQQKDHDIFKRDGDDLHMTKKLSLNEALCGYNFLIKHLDGHPLVLSSKQGDVIKPGVIRGVLGKGMPNKKYPELKGNLFVEFEVEFPKEHFLDDEKAYAVLK,not failed
7,DLEPRERLHRILEQVLVFAGAMVAAAYTHSEDGDQLCLAESAGVPRSLYGLRDSYPLTGGTPAADVHRSGQPLWLTPEDLGRCADARRLPNGDFSLAVLPLGDGGCLAAVSERAGGFDADDRECLRLLAGSVA,failed
8,DLSREADQALQEIVRQTQETAQMCLLNGRKYTVALMKEGERHFRISSNIGENAPIPWTASGRLLLGHLSDGQIVDLIDERDFVLPDGERLPLETFLKQIRQATEDGFFSFDSVADTFTHCFAAPVRDEHGVCICTLCIVAPRADAQRNYQQYRRVLIDSANRLARRIN,failed
9,DNKELQKLTEDISETYFKKPFRHQALFNDRLKTTGGRYLLTSHNIELNRKYLIEHGREELIGIIKHELCHYHLHLEGKGYKHRDRDFRMLLQQVNAPRFCTPLKKKAENKKTYMYICTTCGQQYIKKRAMNPDRYRCGKCRGKIKRI,not failed
10,DPREVAGGYVEKLCARYGLADVRVVQSPAMGRGLTGELGNAGAALLEEVVKDGMTVGVSWGDTMLAVSEHLRTLPLVDVKVVQLKGGHSHTARNTNDMVTLTRFSRALNAEMMMLPLPVILDSKEAKELVVKDRHIASMLNLGAHCDVAVFTVGAVKSESLLLNLGYLSPSEQARLMEHAVGDVCSRFYDAQGEVADPDIDARTVGISLADLKKRPVRVLVAGGLEKAPAIEAALRTGVATHVVIDHATAQRVVEMA,failed
11,DQPLAVAGDELAIADQTIDALSAQVEKLRHQQDLSLKQAELLTELSRANLSDIDEIQGVIQKNLDQARALFGCERLVFYYHPRYQPEAMVVQALDLTTQGLIDSKDPHPWGQEDMPSQIVAINDTSGASISNPHRQWLEQHQVKASLTVPLHRDNYPLGLLMAHHCQRPHQWEMRERQFLQQLTEELQTTLDRANLIQERNESAQQAQILKELTLKISAAIN,failed
12,DRTAILGGTFTPIHNGHRALLHKAFQTASHDGSGDGHVIVGLTSPELATETRSDPTHVKQLGAYDDRRSALASELDQLGEPYTATYEIVRLDDTQGPAATRADVDALVASPEAKAQRRAYELNQQRRESGLHPLEIHTPPFVVAEDGTRISSTRIRNGEIDVHGRLLD,failed
13,DRVLVPVANPNTEDNLLQLAIILTKSASGTLLPLHILLEENNPISPDAKAKQSQLLSTAEMIAHAAVVNVTPIGRIDESIDKGIARVAEEKQASAIICGWKGYSTYEENLFGGVIDKIVQRSFIPVLVSR,failed
14,DRVTLEVGKVIQQGRQSKGLTQKDLATKINEKPQVIADYESGRAIPNNQVLGKIERAIGLKLRGKDIGKPIEKGPRAK,not failed
15,DSIVEGRTLNVAVSPASPPMLFKSADGKLQGIDLELFSSYCQSRHCKLNITEYAWDGMLGAVASGQADVAFSGISITDKRKKVIDFSEPYYINSFYLVSMANHKITLNNLNELNKYSIGYPRGMAYSDLIKNDLEPKGYYSLSKVKLYPTYNETMADLKNGNLDLAFIEEPVYFTFKNKKKMPIESRYVFKNVDQLGIAFKKGSPVRDDFNLWLKEQGPQKISGIVDSWMK,not failed
16,DSRQRFKRQMVEQAAPWLLELSARTGLVTDLSSFDGESLEVLESAVPEVLRKRYPSNSRIVGQHASLFHSAMGKACLGALASAEVERLAEQEQVPAEARQQCLESQHLGFGQRTEGHWEYPVRLPFLIRAVALPLQAEGRVIGSIALHWPRDLACVEQVRNRHLWLLAETVERVQKDI,failed
17,DTMCLAIPGQVIEIREENGLKMGTVDISGALTKACLEYVPEIAIGQYTIVHAGFALKIIDEKEAAESLKLWDELIKSG,not failed

row,Sequence,protein production
1,DYSQKLQNLISEQLVGCGFNEILNNSLTAASYYEGSETYKNENLVYLMNPLSNDLNVMRQTLLFGGLESIQHNANRKNADLKFFEFGNCYFYNAEKKNPEKVLAAYAEEYHLGLWVTGKRVSNSWAHPDENSSVYELKAYVLNIFTRLGLNFGNVVFGNLTNDIYSTAISVHTRGGKLLATFGIISKKIQKAFDIDNEVYYAEINWKELM,not failed
2,EAGTGRPVLILHGGGGPATVAPLAGHLARTAHTLVPTHPGWNGTPRPDRFAGVDDIALAYLRHLQDRGLRDVLVVGSSLGGWIGAELAARDDLGIITGLVLIDAVGIQVDGEPVRDFFALDARGVAEYSYHDPDRFYVDPADIPAGQLAARQANMATMRALAGDPYMHDPTLRGRLARVPVPTLVLWGESDRIVTPAYGRAYTDAFPDARFEVIPKAGHLPQLEQPEATFAAIDAYLAR,failed
3,EARGFTAEDFALSHPGGALGRKLLLRVNDIMHTGDEIPHVGLQATLRDALLEITRKNLGMTAICDDDMNIIGIFTDGDLRRVFDTGVDMRDASIADVMTRGGIRIRPGTLAVDALNLMQSRHITCVLVADGDHLLGVVHMHDLLRA,not failed
4,ECPAVVAVVARGSEQNLQIRPARYSEESPWTSNGFEEKNFRSFFGRMEKHYRESTGESLMKDVYVMGLNNIEYPASLPLSSEGSSAIELGTSISSGRDNVISAIDRFESATGCTPKYLLAGYSQGVLIVDGYEEELIARDQYLGTLHIANPAQQVDDPTLVGHEVTTGGLASSVEPVEDNPFKVSYCLPGDIVCDRSFEQFSAAGSSIAAAQLSTGNIRPGRVHVQYFVTTQPWDEQIFDEVASWIEAA,failed
5,EDDYYYPSVKLEFVTVKAGTDGSIQTLIPDNGEALTVSKDRTGSAISPNTSRRVMSNYETLSNGHTATAVIYSLQSLVTPTPKPADDPTYRDGLKHDPVDVVSIWLGRGYLNMILNLKVNGGKQHVFGIVEDLSEFETNGTVNMLLYHDANGDEEYYNRRAYLSVPLDKYADAENPGQKITIKFKYYTYDKDGTAIESGKYCNPGFEYVPDKN,not failed
6,EDRNFVYLKRQVPMDVADKIKQMALPGIHQQPESRRYYPEGEVTAHIVGFNNVEDQGQEGVELTFNQQLSGQPGSRRVIKDRLGRVIEDVQAVTLPVDGRDLRLSID,failed
7,EELQALVDNIPAAIYHLDVSGQATIRFRPPAFLKTLVSEHAGTTRLNTLSMIHHDDRHMLSNAYSKLREAKHSLTLVYRIVTPEGKLHWIEDHMRSSFSDDGLFSGIDGILCEVT,not failed
8,EGLDYLTAPNPPSIREELCTASHDTITVHWISDDEFSISSYELQYTIFTGQANFISLYNSVDSWMIVPNIKQNHYTVHGLQSGTRYIFIVKAINQAGSRNSEPTRLKTNSQPFK,not failed
9,EHIVPSNQQQIVRVLRTPGNNLHEVETAQGQRFLVSMPSKYRKNIWIKRGDFLIVDPIEEGEKVKAEISFVLCKDHVRSLQKEGFWPEAFSEVAEKHN,not failed
10,EIHHRKPHGPEAALENVDAKIAKLMGEGYAFEEVKRALEIAQNNVEVARSILREFAFPPPVSPRLNL,failed
11,EKAVLIGEKEADITFVTWGSQKGPILDVIEDLKEEGISANLLYLKMFSPFPTEFVKNVLSSANLVIDVESNYTAQAAQMIKLYTGIDIKNKILKYNGRHMTEDEILKSAKEILNK,not failed
12,EKKEGHFSALPSLPVGSHAKVSSPQPRGPRYAEGTFISDYSIAMDKIHQQDFVNWLLAQKGKKNDWKHNITQREARALELASQANRKEEEAVEPQSSPAKNPSDEDLLRDLLIQELLACLLDQTNLCRLRSR,failed
13,ELCNALADKISLKDRFGFSLYIALFDKVSSLGSGSDHVMDAISQCEQYAKEQGAQERNAPWRLFFRKEVFTPWHSPSEDNVATNLIYQQVVRGVKFGEYRCEKEDDLAELASQQYFVDYGSEMILERLLNLVPTYIPDREITPLKTLEKWAQLAIAAHKKGIYAQRRTDAQKVKEDVVSYARFKWPLLFSRFYEAYKFSGPSLPKNDVIVAVNWTGVYFVDEQEQVLLELSFPEIMAVSSSRECRVWLSLGCSDLGCAAPHSGWAGLTPAGPCSPCWSCRGAKTTAPSFTLATIKGDEYTFTSSNAEDIRDLVVTFLEGLRKRSKYVVALQDNPNPAGEESGFLSFAKGDLIILDHDTGEQVMNSGWANGINERTKQRGDFPTDCVYVMPTVTMPPREIVALVTMTPDQRQDVVRLLQLRTAEPEVRAKPYTLEEFSYDYFRPPPKHTLSRVMVSKARGKDRLWSHTREPLKQA,failed
14,ELEHQISGTSKEALLDDIRSLIDSASYTYIRQREMKGLGHAILTGRELVGDEPFAVVLADDLCVNEEQGVLAQMVELYKQFRCSIVAVQEVPETETHKYGVIAGEMIKDDIFRIDNMVEKPEPGTAPSNLAIIGRYILTPDIFELIENTEPGKGGEIQITDALMQQAQSGCVIAYKFKGQRFDCGSVEGYIEATNYCYENLYKKASSAELAKTPTVKVSEPA,failed
15,ELLKSGKAKDRFEGEENAPVTIVEYASLTCVHCAHFYNDVLPQIRKKYIKTGKVKLIFRDFAFDSRATAGFMLARCAPEDRYFPLIEVLFQKQSEWVWARDAVTPLKKIGLMAGFTDESFNACLKNQSILDEVNASFERGKELGVNATPTFFINGNKYEGAMSVEAFFSVIDSFLKN,not failed
16,ELQAGFDKQEYMETLKINYKVHIALDKWAANTSVADPQDFDFVYRSPVVAFDNIWDLWKHKNKSVALISVQGSIQTEASFLANLYAAMIPAKGELQLDKDFKFTYQLADNPHAAVHVGWFVAMAYLSKTVVSKIDSCYNAGIKDFILTGHSQGGGITFLLNSYLENLKMQGRLPADIRFKTYCSAGPKPGNLFYAYEYEHMTAGGWAYNVVNTADWVPDVPFSVQTVTDFTAVNPFHGAKKAIRKQRFPANLALKHMYNKMSKPSERAQKNYQKYLGRMVSNAVKKQIPNFNAPEYYNSNYYVRTGNTIVLFPDEAYYKIYSNDPEDPNIWRHHLP,failed
17,ELQRRKLLQENILNSIPLPIHIKDVEDDFRYVFCNEESMRMFGTHEGETVCSVLDSEQAERMQKTDLEVFTTGKPYFGVERIILKDGRSYDTIVRKNIIYDGTKRLLLNIRWD,failed
